Source: paper PMC2891831, “Insight into the Mechanisms of Adenovirus Capsid Disassembly from Studies of Defensin Neutralization” (PLoS Pathogens, 2010)
Like-named read-outs stand apart in the source and are kept apart here.

Tests used:
HAdV species B1 = test: Infection assay (hexon staining), HAdV species B1; format: cell-based, human adenovirus; details: 15 µM HD5, A549 cells, hexon staining at ~48 h, vs. no defensin
Procedure: (§1) To determine whether sensitivity to α-defensins is a general property of HAdVs, serotypes representative of HAdV species A–F were tested for infectivity in the presence of 15 µM HD5 or HNP1 (Figure 1). Wild type HAdVs rather than vectors were used for these studies, and infectivity was assessed by staining for hexon production. […] These studies indicate that sensitivity to α-defensins is species specific. In addition, particular HAdV serotypes are not equally sensitive to all defensins, indicating defensin sequence specificity as well.
(§2) Figure 1 Sensitivity to neutralization by alpha-defensins is AdV species specific. HAdVs were incubated with 15 µM HD5 (A) or HNP1 (B) and assessed for infectivity on A549 cells. Data are the mean of the percent infectivity compared to control cells infected with each virus in the absence of defensin for at least three independent experiments ± SD. The upper limit for quantification of this assay is 200%. […]
(§3) Prior to use in this assay, each virus stock was titrated on A549 cells. […] In parallel, wells were infected with two-fold serial dilutions of each virus to establish a standard curve for quantification with an upper limit of 200%. […] Total well fluorescence above background was quantified with ImageJ software. For each virus, samples were quantified by nonlinear regression against the standard curve using Prism software (GraphPad Software, Inc., La Jolla, CA).

HAdV species B2 = test: Infection assay (hexon staining), HAdV species B2; format: cell-based, human adenovirus; details: 15 µM HD5, A549 cells, hexon staining at ~48 h, vs. no defensin
Procedure: as §1, §2, §3

HAdV-5 capsid = test: Virus-defensin equilibrium-binding assay, HAdV-5; parameters: species or system human adenovirus
Procedure: Neutralization of HAdV by α-defensins is dependent upon binding to the virus capsid, which can be disrupted in the presence of elevated concentrations of sodium chloride. To perform a more quantitative assessment of this interaction, increasing concentrations of HD5 were incubated with Ad5.eGFP to allow binding, and the virus/HD5 complex was then separated from unbound HD5 on a nycodenz gradient. Bound defensin was visualized after SDS-PAGE using a sensitive fluorescent total protein stain and quantified against a standard curve.
Figure 2 HD5 binding to HAdV. A) HD5 binding to a representative defensin-sensitive serotype (HAdV-5) was quantified by an equilibrium-binding assay. Data are the mean of the number of HD5 molecules bound per virion at the indicated HD5 concentrations from at least three independent experiments ± SD. Binding curves were fitted using Prism software. B) Binding of HD5 to additional defensin-sensitive (HAdV-7p) and resistant (HAdV-19c, -25p, -51p) serotypes expressed as a percent of HD5 bound to HAdV-5. Data are the mean of two or three independent experiments ± SD.
To measure HD5 binding to HAdV-5 and -51, HD5 was serially diluted in PBS and mixed with 5 µg purified virus. After 1 h incubation on ice, one half of each sample was separated by ultracentrifugation [209,000×g (avg.) for 2 hrs at 4°C] on a discontinuous gradient consisting of 300 µl of 30% nycodenz and 200 µl of 80% nycodenz in 50 mM NaCl, 20 mM HEPES pH 7.4 using an SW55ti rotor with adaptors (Beckman Coulter, Inc.). The visible virus band was collected. The other half of each sample was used to make a standard curve for quantification. All samples were boiled in reducing loading buffer and separated using a 16% PAGEgel (Expedeon, Inc., San Diego, CA) or 10–20% Tris-Tricine gel (Bio-Rad, Hercules, CA). The gels were stained with Deep Purple (GE Healthcare) and imaged on a Typhoon Trio. Virus bands were quantified using ImageQuant NT software (GE Healthcare). The amount of HD5 in each sample was normalized to protein V and hexon. The amount of HD5 in the centrifuged samples was then quantified against the standard curve using Prism software. Affinity and stoichiometry were estimated from the average data of at least three independent experiments using Prism software.

19cPB = test: Infection assay, 19cPB virus chimera; format: cell-based, human adenovirus; details: 5 µM and 10 µM HD5, A549 cells; at least three independent experiments; neutralized only at 10 µM
Description: The availability of sensitive (e.g., HAdV-5) and resistant (e.g., HAdV-19c) serotypes provided a means to test this HD5 neutralization model by generating virus chimeras. Initially, virus chimeras were constructed by replacing the sequences for fiber, penton base, and hexon in the HAdV-5 genome with the corresponding sequences from HAdV-19c. Consistent with previous studies, [38], the virus chimera containing the HAdV-19c hexon is not viable; however, constructs containing the HAdV-19c fiber (19cF) or penton base (19cPB) are capable of replicating. […] In contrast, the 19cPB virus has an intermediate phenotype.
Figure 6 Neutralization determinants are located in fiber and penton base. A) Schematic of chimeric viruses. […] B) Each of the chimeric viruses was incubated with 5 µM (grey) or 10 µM (black) HD5 and assessed for infectivity on A549 cells. […] The upper limit for quantification of this assay is 200%.
as §3

HAdV-19c = test: Infection assay, HAdV-19c; format: cell-based, human adenovirus
Procedure: Figure 6 Neutralization determinants are located in fiber and penton base. A) Schematic of chimeric viruses. Capsid proteins are depicted in the order in which they are encoded in the virus genome for HAdV-5 (white) and HAdV-19c (grey). The variable residues in fiber (GYAR and DTET) are indicated for each construct. B) Each of the chimeric viruses was incubated with 5 µM (grey) or 10 µM (black) HD5 and assessed for infectivity on A549 cells. Data are the mean of the percent infectivity compared to control cells infected with each virus in the absence of defensin for at least three independent experiments ± SD. The upper limit for quantification of this assay is 200%.
We then combined the GYAR substitution with the PB substitution in a single construct (PB/GYAR).
as §3, with “cells. A virus concentration was chosen to produce 50–70% maximal signal in the absence of defensin as described below.” for “cells.”

[1] = ref [40], [44]; cited from earlier work
Description: The extensive difference density attributable to HD5 in our cryoEM analysis of Ad5.F35+HD5 is consistent with our estimated stoichiometry. HD5 binding sites were found on all of the major proteins of the capsid. […] The accumulation of HD5 difference density was not equal among the four unique hexon positions in the asymmetric unit but rather was greatest on the peripentonal hexons. Since the possible binding sites presented by each hexon a ...

B1: HD5: human alpha-defensin; synthetic, obtained from Peptides International; three disulfide bonds (PDB 1ZMP) (peptide, UniProt Q01523 20-94, looked up)
Defensin alpha 5: ESLQERADEATTQKQSGEDNQDLAISFAGNGLSALRTSGSQARATCYCRTGRCATRESLSGVCEISGRLYRLCCR
modifications: Defensin-5
HAdV species B1
  sensitivity to neutralization (infectivity): sensitive
HAdV species B2
  sensitivity to neutralization (infectivity): sensitive
HAdV-5 capsid; 95% confidence interval
  95% confidence interval of HD5 molecules bound per virus particle at saturation: 1603–3919 HD5 molecules
HAdV-5 capsid; 95% confidence interval, read-out: 95% confidence interval of KD
  Kd: 2.8 to 26.2 µM
HAdV-5 capsid; HAdV-5
  level of HD5 binding (in words): specific binding
HAdV-5 capsid; equilibrium binding, Ad5.eGFP, 1 h on ice in PBS, nycodenz gradient, at least three independent experiments, read-out: KD
  Kd: ~14.5 µM
19cPB
  sensitivity to HD5 neutralization: partially neutralized by HD5 but only at the higher concentration tested (10 µM)
HAdV-19c; 5 µM and 10 µM HD5, A549 cells
  sensitivity to HD5 neutralization: completely resistant to neutralization
HAdV-19c; 20 µM HD5, data not shown
  defensin-resistance at higher HD5 concentration: confirmed the defensin-resistance
[1]
  concentration at which HD5 forms dimers and tetramers: below 5 µM
